Patent US20210230272A1
Where two headings read alike, the source gives them in different places. Blank lines part the entries; values can stand above or below the binder they belong to.

Tests used:
[1] = target: human CLDN18.2 (human), P56856; experiment: cell-based or functional assay
human CLDN18.2 (human) [2] = target: human CLDN18.2 (human) (UniProt P56856); experiment: cell ELISA, hCLDN18.2+ cells
mice CLDN18.2 (mice) = mice CLDN18.2 (mice) (UniProt P56857); experiment: cell ELISA, mCLDN18.2+ cells
human CLDN18.2 (human) [3] = target: human CLDN18.2 (human) (UniProt P56856); experiment: flow cytometry, CF488, 10 µg/ml
human CLDN18.2 (human) [4] = target: human CLDN18.2 (human) (UniProt P56856); experiment: flow cytometry, CF488 labeled antibody 10 µg/ml, hCLDN18.2+ cells
human CLDN18.2 (human) [5] = target: human CLDN18.2 (human) (UniProt P56856); experiment: cell-based or functional assay
human CLDN18.2 (human) [6] = target: human CLDN18.2 (human) (UniProt P56856); experiment: flow cytometry, CF633, 1 µg/ml
human CLDN18.2 (human) [7] = target: human CLDN18.2 (human) (UniProt P56856); experiment: flow cytometry, CF633 labeled antibody 1 µg/ml, hCLDN18.2+ cells
human CLDN18.2 (human) [8] = target: human CLDN18.2 (human) (UniProt P56856); experiment: flow cytometry, CF488 labeled antibody 1 µg/ml, hCLDN18.2+ cells
human CLDN18.2 (human) [9] = target: human CLDN18.2 (human) (UniProt P56856); experiment: flow cytometry, CF633, 10 µg/ml
human CLDN18.2 (human) [10] = target: human CLDN18.2 (human) (UniProt P56856); experiment: cell ELISA, hCLDN18.2+ cells; remark: listed apart in the source
human CLDN18.2 (human) [11] = target: human CLDN18.2 (human) (UniProt P56856); experiment: KinExA, antibody titrated with hCLDN18.2+ cells
human CLDN18.2 (human) [12] = target: human CLDN18.2 (human) (UniProt P56856); experiment: flow cytometry, CF633 labeled antibody 10 µg/ml, hCLDN18.2+ cells

B1: CAR1a (CAR with Ab10 scFv) (protein)
chain: DIVMTQSPDSLAVSLGERATISCKSSQSLLNSGNQKNYLTWYQQKPGQPPKLLIYWASTRESGVPDRFSGSGSGTDFTLTISSLQAEDVAVYYCQNDYFYPFTFGQGTKLEIKGGGGSGGGGSGGGGSQVQLVQSGAEVKKPGSSVKVSCKASGYAFSNYLIEWVKQAPGQGLEWIGLINPGSGGTNYNEKFKGKATITADKSTSTAYMELSSLRSEDTAVYYCARVYYGNSFAYWGQGTLVTVSSTTTPAPRPPTPAPTIASQPLSLRPEACRPAAGGAVHTRGLDFACDIYIWAPLAGTCGVLLLSLVITLYCKRGRKKLLYIFKQPFMRPVQTTQEEDGCSCRFPEEEEGGCELRVKFSRSADAPAYKQGQNQLYNELNLGRREEYDVLDKRRGRDPEMGGKPRRKNPQEGLYNELQKDKMAEAYSEIGMKGERRRGKGHDGLYQGLSTATKDTYDALHMQALPPR
specific killing rate of target cells, %, CART1a, 1:1 [1]: 19.1%
specific killing rate of target cells, %, CART1a, 3:1 [1]: 18.3%
specific killing rate of target cells, %, CART1a, 10:1 [1]: 32.2%
specific killing rate of target cells, %, CART1a, 20:1 [1]: 34.8%
specific killing rate of target cells, %, CART3a, 1:1 [1]: 3.9%
specific killing rate of target cells, %, CART3a, 3:1 [1]: 3.1%
specific killing rate of target cells, %, CART3a, 10:1 [1]: 21.8%
specific killing rate of target cells, %, CART3a, 20:1 [1]: 24.3%
specific killing rate of target cells, %, CART3ab10, 1:1 [1]: 0%
specific killing rate of target cells, %, CART3ab10, 3:1 [1]: 0%
specific killing rate of target cells, %, CART3ab10, 10:1 [1]: 12.2%
specific killing rate of target cells, %, CART3ab10, 20:1 [1]: 21.2%
specific killing rate of target cells, %, CART4a, 1:1 [1]: 0%
specific killing rate of target cells, %, CART4a, 3:1 [1]: 1.2%
specific killing rate of target cells, %, CART4a, 10:1 [1]: 8.8%
specific killing rate of target cells, %, CART4a, 20:1 [1]: 19.8%

B5: Ab30 (antibody, V domains shown)
VH: QVQLVQSGAEVKKPGSSVKVSCKASGYAFSNYLIEWVRQAPGQGLEWMGLINPGSGGTNYNEKFKGKVTITADKSTSTAYMELSSLRSEDTAVYYCARVYYGNTFAYWGQGTLVTVSS
VL: DIVMTQSPDSLAVSLGERATISCKSSQSLLNSGNQKNYLTWYQQKPGQPPKLLIYWASTRESGVPDRFSGSGSGTDFTLTISSLQAEDVAVYYCQNDYFYPFTFGQGTKLEIK
EC50 (human CLDN18.2 (human) [2]): 11.4 nM
Emax (human CLDN18.2 (human) [2]): 0.67

B6: Ab22 (antibody, V domains shown)
VH: QVQLVQSGAEVKKPGSSVKVSCKASGYAFSNYLIEWVRQAPGQGLEWMGLINPGSGGTNYNEKFKGKVTITADKSTSTAYMELSSLRSEDTAVYYCARVYYGNTFAYWGQGTLVTVSS
VL: DIVMTQSPDSLAVSLGERATINCKSSQSLLTSGNNKNYLAWYQQKPGQPPKLLIYWASTRESGVPDRFSGSGSGTDFTLTISSLQAEDVAVYYCQNDYFYPFTFGQGTKLEIK
EC50 (human CLDN18.2 (human) [2]): 1.37 nM
Emax (human CLDN18.2 (human) [2]): 0.827

B9: Ab28 (antibody, V domains shown)
VH: QVQLVQSGAEVKKPGSSVKVSCKASGYAFSNYLIEWVRQAPGQGLEWMGLINPGSGGTNYNEKFKGKVTITADKSTSTAYMELSSLRSEDTAVYYCARVYYGNSFAYWGQGTLVTVSS
VL: DIVMTQSPDSLAVSLGERATINCKSSQSLLNTGNNKNYLAWYQQKPGQPPKLLIYWASTRESGVPDRFSGSGSGTDFTLTISSLQAEDVAVYYCQNDYFYPFTFGQGTKLEIK
EC50 (human CLDN18.2 (human) [2]): 0.154 nM
Emax (human CLDN18.2 (human) [2]): 1.56

B10: Ab34 (antibody, V domains shown)
VH: QVQLVQSGAEVKKPGSSVKVSCKASGYAFSNYLIEWVRQAPGQGLEWMGLINPGSGGTNYNEKFKGKVTITADKSTSTAYMELSSLRSEDTAVYYCARVYYGNTFAYWGQGTLVTVSS
VL: DIVMTQSPDSLAVSLGERATISCKSSQSLLNSGNNKNYLAWYQQKPGQPPKLLIYWASTRESGVPDRFSGSGSGTDFTLTISSLQAEDVAVYYCQNDYFYPFTFGQGTKLEIK
EC50 (human CLDN18.2 (human) [2]): 0.151 nM
Emax (human CLDN18.2 (human) [2]): 1.42

B11: Ref (control anti-human CLDN18.2 antibody) (antibody, INN chains, looked up, V domains shown)
VH: QVQLQQPGAELVRPGASVKLSCKASGYTFTSYWINWVKQRPGQGLEWIGNIYPSDSYTNYNQKFKDKATLTVDKSSSTAYMQLSSPTSEDSAVYYCTRSWRGNSFDYWGQGTTLTVSS
VL: DIVMTQSPSSLTVTAGEKVTMSCKSSQSLLNSGNQKNYLTWYQQKPGQPPKLLIYWASTRESGVPDRFTGSGSGTDFTLTISSVQAEDLAVYYCQNDYSYPFTFGSGTKLEIKR
EC50 (human CLDN18.2 (human) [2]): 0.249 nM
Emax (human CLDN18.2 (human) [2]): 1.41
binding value, times higher than the background (human CLDN18.2 (human) [3]): 4 times
Binding value (FACS fluorescence intensity) (human CLDN18.2 (human) [4]): 17900
ADCC activity, EC50 (human CLDN18.2 (human) [5]): 1.39 µg/mL
CDC activity, EC50 (human CLDN18.2 (human) [5]): 2.31 µg/mL
inducing the apoptosis of tumor cells at 10 µg/ml (LDH release) (human CLDN18.2 (human) [5]): 15.3%
inducing the apoptosis of tumor cells at 30 µg/ml (LDH release) (human CLDN18.2 (human) [5]): 19.6%
inhibition rate % of proliferation, 1 µg/ml (CCK-8) (human CLDN18.2 (human) [5]): 2.34%
inhibition rate % of proliferation, 10 µg/ml (CCK-8) (human CLDN18.2 (human) [5]): 2.94%
inhibition rate % of proliferation, 30 µg/ml (CCK-8) (human CLDN18.2 (human) [5]): 3.9%
binding value, ratio to the background (human CLDN18.2 (human) [6]): 2.7
Binding value (FACS fluorescence intensity) (human CLDN18.2 (human) [7]): 62.5
Binding value (FACS fluorescence intensity) (human CLDN18.2 (human) [8]): 1940
binding value, times of the background (human CLDN18.2 (human) [9]): 8.5 times
EC50 (mice CLDN18.2 (mice)): 1.04 nM
Emax (mice CLDN18.2 (mice)): 1
EC50 (human CLDN18.2 (human) [10]): 0.345 nM
Emax (human CLDN18.2 (human) [10]): 0.98
Kd (human CLDN18.2 (human) [11]): 0.144 nM
Binding value (FACS fluorescence intensity) (human CLDN18.2 (human) [12]): 198

Next, values leading:

CDC activity, EC50 [1]: 2.12 µg/mL
B2: Ab51 (antibody, IgG1, V domains shown)
VL: DIVMTQSPDSLAVSLGERATINCKSSQSLLNTGNNKNYLAWYQQKPGQPPKLLIYWASTRESGVPDRFSGSGSGTDFTLTISSLQAEDVAVYYCQNDYFYPFTFGQGTKLEIK
VH: QVQLVQSGAEVKKPGSSVKVSCKASGYAFSNYLIEWVRQAPGQGLEWMGLINPGSGGTNYNEKFKGRVTITADESTSTAYMELSSLRSEDTAVYYCARVYYGNTFAYWGQGTLVTVSS

EC50 (human CLDN18.2 (human) [2]): > 16 nM
Emax (human CLDN18.2 (human) [2]): 0.145
B3: Ab21 (antibody, V domains shown)
VH: QVQLVQSGAEVKKPGSSVKVSCKASGYAFSNYLIEWVRQAPGQGLEWMGLINPGSGGTNYNEKFKGKVTITADKSTSTAYMELSSLRSEDTAVYYCARVYYGTSFAYWGQGTLVTVSS
VL: DIVMTQSPDSLAVSLGERATINCKSSQSLLTSGNNKNYLAWYQQKPGQPPKLLIYWASTRESGVPDRFSGSGSGTDFTLTISSLQAEDVAVYYCQNDYFYPFTFGQGTKLEIK

EC50 (human CLDN18.2 (human) [2]): 0.197 nM
Emax (human CLDN18.2 (human) [2]): 1.41
B4: Ab32 (antibody, V domains shown)
VH: QVQLVQSGAEVKKPGSSVKVSCKASGYAFSNYLIEWVRQAPGQGLEWMGLINPGSGGTNYNEKFKGKVTITADKSTSTAYMELSSLRSEDTAVYYCARVYYGNTFAYWGQGTLVTVSS
VL: DIVMTQSPDSLAVSLGERATINCKSSQSLLNSGNNKNYLAWYQQKPGQPPKLLIYWASTRESGVPDRFSGSGSGTDFTLTISSLQAEDVAVYYCQNDYFYPFTFGQGTKLEIK

EC50 (human CLDN18.2 (human) [2]): > 40 nM
Emax (human CLDN18.2 (human) [2]): 0.147
B7: Ab23 (antibody, V domains shown)
VH: QVQLVQSGAEVKKPGSSVKVSCKASGYAFSNYLIEWVRQAPGQGLEWMGLINPGSGGTNYNEKFKGKVTITADKSTSTAYMELSSLRSEDTAVYYCARVYYGTSFAYWGQGTLVTVSS
VL: DIVMTQSPDSLAVSLGERATINCKSSQSLLNTGNNKNYLAWYQQKPGQPPKLLIYWASTRESGVPDRFSGSGSGTDFTLTISSLQAEDVAVYYCQNDYFYPFTFGQGTKLEIK

EC50 (mice CLDN18.2 (mice)): 0.474 nM
Emax (mice CLDN18.2 (mice)): 1.91
B8: Ab51 (antibody, IgG1, V domains shown)
VH: QVQLVQSGAEVKKPGSSVKVSCKASGYAFSNYLIEWVRQAPGQGLEWMGLINPGSGGTNYNEKFKGRVTITADESTSTAYMELSSLRSEDTAVYYCARVYYGNTFAYWGQGTLVTVSS
VL: DIVMTQSPDSLAVSLGERATINCKSSQSLLNTGNNKNYLAWYQQKPGQPPKLLIYWASTRESGVPDRFSGSGSGTDFTLTISSLQAEDVAVYYCQNDYFYPFTFGQGTKLEIK
